Measured values published in US20110306057A1 (Dana-Farber, published 2011).

T1: PP2A regulatory subunit B55α (human (endogenous in human HEK TER …, UniProt P63151 2-447, limits assumed))
T1 construct: Endogenous protein found in anti-FLAG immune complexes by immunoblot
T1 sequence (looked up): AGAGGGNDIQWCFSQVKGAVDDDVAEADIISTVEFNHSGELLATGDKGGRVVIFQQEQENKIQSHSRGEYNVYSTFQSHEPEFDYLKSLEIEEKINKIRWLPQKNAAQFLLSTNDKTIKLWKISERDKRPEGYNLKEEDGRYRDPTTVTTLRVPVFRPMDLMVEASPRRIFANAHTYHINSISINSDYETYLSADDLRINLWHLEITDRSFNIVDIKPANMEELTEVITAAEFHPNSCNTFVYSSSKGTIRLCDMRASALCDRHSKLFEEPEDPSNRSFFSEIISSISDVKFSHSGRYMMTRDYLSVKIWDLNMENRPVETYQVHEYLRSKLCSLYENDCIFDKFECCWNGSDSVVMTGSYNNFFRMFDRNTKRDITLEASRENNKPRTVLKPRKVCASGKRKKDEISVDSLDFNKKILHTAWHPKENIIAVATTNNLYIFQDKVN


Tests used:
[1] = molecular target: PP2A regulatory subunit B56γ (human (endogenous in human HEK TER …, UniProt Q13362 1-524)); assay: anti-FLAG co-IP from HEK TER cells, immunoblot, densitometry
[2] = molecular target: T1, PP2A regulatory subunit B55α; assay: anti-FLAG co-IP from HEK TER cells, immunoblot, densitometry; +++ >90%, ++ 50-90%, + <50%
[3] = molecular target: T2, PP2A regulatory subunit B56α (human (endogenous in human HEK TER …, UniProt Q15172 2-486, limits assumed)); assay: as above
T2 construct: Endogenous protein found in anti-FLAG immune complexes by immunoblot

[4] = molecular target: T3, PP2A regulatory subunit B56ε (human (endogenous in human HEK TER …, UniProt Q16537 2-467, limits assumed)); assay: as above
T3 construct: Endogenous protein found in anti-FLAG immune complexes by immunoblot

[5] = molecular target: T4, PP2A catalytic subunit Cα (human (endogenous in human HEK TER or …, UniProt P67775 1-309)); assay: as above
T4 construct: Endogenous protein found in anti-FLAG immune complexes by immunoblot or mass spectroscopy; also called PP2A catalytic Cα
T4 sequence (P67775 whole entry): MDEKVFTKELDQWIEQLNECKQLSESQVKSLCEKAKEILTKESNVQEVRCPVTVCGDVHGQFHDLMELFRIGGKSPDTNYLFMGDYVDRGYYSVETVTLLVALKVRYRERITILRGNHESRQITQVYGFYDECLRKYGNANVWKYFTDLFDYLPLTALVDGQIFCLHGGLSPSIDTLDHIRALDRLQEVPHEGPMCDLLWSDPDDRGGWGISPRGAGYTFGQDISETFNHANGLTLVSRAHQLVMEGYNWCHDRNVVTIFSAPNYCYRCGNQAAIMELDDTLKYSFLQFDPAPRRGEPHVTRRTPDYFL

T2 sequence (Q15172 2-486 limits assumed): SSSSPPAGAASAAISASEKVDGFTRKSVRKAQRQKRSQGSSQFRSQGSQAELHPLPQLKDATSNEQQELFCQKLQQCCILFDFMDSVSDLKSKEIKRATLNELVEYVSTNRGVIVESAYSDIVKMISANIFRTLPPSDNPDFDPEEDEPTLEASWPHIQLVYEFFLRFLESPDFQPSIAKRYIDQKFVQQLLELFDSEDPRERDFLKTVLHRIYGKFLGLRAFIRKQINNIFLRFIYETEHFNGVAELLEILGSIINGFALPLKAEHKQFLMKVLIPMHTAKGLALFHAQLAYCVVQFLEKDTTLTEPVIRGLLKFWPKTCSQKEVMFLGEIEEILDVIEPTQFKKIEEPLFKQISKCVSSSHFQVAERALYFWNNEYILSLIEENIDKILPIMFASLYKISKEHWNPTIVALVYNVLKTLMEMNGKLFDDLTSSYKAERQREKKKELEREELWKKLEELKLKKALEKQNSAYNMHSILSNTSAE
T3 sequence (Q16537 2-467 limits assumed): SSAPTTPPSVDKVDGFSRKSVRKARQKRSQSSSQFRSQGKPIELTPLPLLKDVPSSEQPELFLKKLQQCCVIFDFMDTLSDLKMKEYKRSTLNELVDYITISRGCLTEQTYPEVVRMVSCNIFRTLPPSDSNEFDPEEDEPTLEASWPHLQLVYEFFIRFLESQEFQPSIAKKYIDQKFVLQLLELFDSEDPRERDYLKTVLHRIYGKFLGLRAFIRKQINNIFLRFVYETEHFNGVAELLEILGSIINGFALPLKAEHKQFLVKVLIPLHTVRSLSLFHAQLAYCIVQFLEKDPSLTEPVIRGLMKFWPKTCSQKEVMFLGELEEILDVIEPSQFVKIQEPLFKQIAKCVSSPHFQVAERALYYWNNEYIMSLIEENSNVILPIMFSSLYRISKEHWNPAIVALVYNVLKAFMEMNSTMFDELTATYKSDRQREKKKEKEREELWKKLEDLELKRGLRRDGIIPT
Chain of PP2A regulatory subunit B56γ (human (Q13362 whole entry): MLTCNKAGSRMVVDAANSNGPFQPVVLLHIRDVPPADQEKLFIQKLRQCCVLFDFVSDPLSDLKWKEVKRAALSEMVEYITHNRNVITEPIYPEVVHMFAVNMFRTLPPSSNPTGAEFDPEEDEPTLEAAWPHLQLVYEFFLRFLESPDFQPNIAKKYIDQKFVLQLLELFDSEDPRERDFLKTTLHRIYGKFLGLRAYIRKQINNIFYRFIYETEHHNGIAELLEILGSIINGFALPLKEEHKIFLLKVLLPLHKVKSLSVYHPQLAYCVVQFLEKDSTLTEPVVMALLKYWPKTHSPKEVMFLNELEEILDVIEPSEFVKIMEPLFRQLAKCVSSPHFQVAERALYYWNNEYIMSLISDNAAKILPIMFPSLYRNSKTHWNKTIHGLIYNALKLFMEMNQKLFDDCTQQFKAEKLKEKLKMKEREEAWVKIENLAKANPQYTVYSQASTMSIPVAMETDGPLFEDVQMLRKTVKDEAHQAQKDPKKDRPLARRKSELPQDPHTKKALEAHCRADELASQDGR

binding result [1]	binding level (percent, co-immunoprecipitation densitometry) [2]	binding level (percent, co-immunoprecipitation densitometry) [3]	binding level (percent, co-immunoprecipitation densitometry) [4]	binding level (percent, co-immunoprecipitation densitometry) [5]	Binder
no binding	–	–	–	–	cancer-derived FLAG-tagged PP2A Aβ mutant ΔE344-E388 (other, Deletion of exon 9, in-frame deletion of 45 amino acids; Overexpressed in HEK TER cells; also called D344-388) MDYKDDDDKAGASELGTGPGAAGGDGDDSLYPIAVLIDELRNEDVQLRLNSIKKLSTIALALGVERTRSELLPFLTDTIYDEDEVLLALAEQLGNFTGLVGGPDFAHCLLPPLENLATVEETVVRDKAVESLRQISQEHTPVALEAYFVPLVKRLASGDWFTSRTSACGLFSVCYPRASNAVKAEIRQQFRSLCSDDTPMVRRAAASKLGEFAKVLELDSVKSEIVPLFTSLASDEQDSVRLLAVEACVSIAQLLSQDDLETLVMPTLRQAAEDKSWRVRYMVADRFSELQKAMGPKITLNDLIPAFQNLLKDCEAEVRAAAAHKVKELGENLPIEDRETIIMNQILPYIKCPDVRLNIISNLDCVNEVIGIRQLSQSLLPAIVELAEDAKWRVRLAIIEYMPLLAGQLGVEFFDEKLNSLCMAWLVDHVYAIREAATNNLMKLVQKFGTEWAQNTIVPKVLVMANDPNYLHRMTTLFCINALSEACGQEITTKQMLPIVLKMAGDQVANVRFNVAKSLQKIGPILDTNALQGEVKPVLQKLGQDEDMDVKYFAQEAISVLALA
–	> 90%	> 90%	> 90%	> 90%	wild type (WT) FLAG epitope-tagged version of PP2A Aβ (other, UniProt P30154 1-601, looked up, not shown: small tags and cut ends, also called wtPP2A Aβ; FLAG-tagged Aβ) MAGASELGTGPGAAGGDGDDSLYPIAVLIDELRNEDVQLRLNSIKKLSTIALALGVERTRSELLPFLTDTIYDEDEVLLALAEQLGNFTGLVGGPDFAHCLLPPLENLATVEETVVRDKAVESLRQISQEHTPVALEAYFVPLVKRLASGDWFTSRTSACGLFSVCYPRASNAVKAEIRQQFRSLCSDDTPMVRRAAASKLGEFAKVLELDSVKSEIVPLFTSLASDEQDSVRLLAVEACVSIAQLLSQDDLETLVMPTLRQAAEDKSWRVRYMVADRFSELQKAMGPKITLNDLIPAFQNLLKDCEAEVRAAAAHKVKELGENLPIEDRETIIMNQILPYIKELVSDTNQHVKSALASVIMGLSTILGKENTIEHLLPLFLAQLKDECPDVRLNIISNLDCVNEVIGIRQLSQSLLPAIVELAEDAKWRVRLAIIEYMPLLAGQLGVEFFDEKLNSLCMAWLVDHVYAIREAATNNLMKLVQKFGTEWAQNTIVPKVLVMANDPNYLHRMTTLFCINALSEACGQEITTKQMLPIVLKMAGDQVANVRFNVAKSLQKIGPILDTNALQGEVKPVLQKLGQDEDMDVKYFAQEAISVLALA
no binding	–	–	< 50%	–	cancer-derived FLAG-tagged PP2A Aβ mutant L101P/V448A (other, UniProt P30154 1-601, looked up, not shown: small tags and cut ends, Overexpressed in HEK TER cells) MAGASELGTGPGAAGGDGDDSLYPIAVLIDELRNEDVQLRLNSIKKLSTIALALGVERTRSELLPFLTDTIYDEDEVLLALAEQLGNFTGLVGGPDFAHCPLPPLENLATVEETVVRDKAVESLRQISQEHTPVALEAYFVPLVKRLASGDWFTSRTSACGLFSVCYPRASNAVKAEIRQQFRSLCSDDTPMVRRAAASKLGEFAKVLELDSVKSEIVPLFTSLASDEQDSVRLLAVEACVSIAQLLSQDDLETLVMPTLRQAAEDKSWRVRYMVADRFSELQKAMGPKITLNDLIPAFQNLLKDCEAEVRAAAAHKVKELGENLPIEDRETIIMNQILPYIKELVSDTNQHVKSALASVIMGLSTILGKENTIEHLLPLFLAQLKDECPDVRLNIISNLDCVNEVIGIRQLSQSLLPAIVELAEDAKWRVRLAIIEYMPLLAGQLGAEFFDEKLNSLCMAWLVDHVYAIREAATNNLMKLVQKFGTEWAQNTIVPKVLVMANDPNYLHRMTTLFCINALSEACGQEITTKQMLPIVLKMAGDQVANVRFNVAKSLQKIGPILDTNALQGEVKPVLQKLGQDEDMDVKYFAQEAISVLALA
no binding	< 50%	–	< 50%	–	cancer-derived FLAG-tagged PP2A Aβ mutant V448A (other, UniProt P30154 1-601, looked up, not shown: small tags and cut ends, Overexpressed in HEK TER cells) MAGASELGTGPGAAGGDGDDSLYPIAVLIDELRNEDVQLRLNSIKKLSTIALALGVERTRSELLPFLTDTIYDEDEVLLALAEQLGNFTGLVGGPDFAHCLLPPLENLATVEETVVRDKAVESLRQISQEHTPVALEAYFVPLVKRLASGDWFTSRTSACGLFSVCYPRASNAVKAEIRQQFRSLCSDDTPMVRRAAASKLGEFAKVLELDSVKSEIVPLFTSLASDEQDSVRLLAVEACVSIAQLLSQDDLETLVMPTLRQAAEDKSWRVRYMVADRFSELQKAMGPKITLNDLIPAFQNLLKDCEAEVRAAAAHKVKELGENLPIEDRETIIMNQILPYIKELVSDTNQHVKSALASVIMGLSTILGKENTIEHLLPLFLAQLKDECPDVRLNIISNLDCVNEVIGIRQLSQSLLPAIVELAEDAKWRVRLAIIEYMPLLAGQLGAEFFDEKLNSLCMAWLVDHVYAIREAATNNLMKLVQKFGTEWAQNTIVPKVLVMANDPNYLHRMTTLFCINALSEACGQEITTKQMLPIVLKMAGDQVANVRFNVAKSLQKIGPILDTNALQGEVKPVLQKLGQDEDMDVKYFAQEAISVLALA
no binding	50 to 90%	> 90%	> 90%	< 50%	cancer-derived FLAG-tagged PP2A Aβ mutant D504G (other, UniProt P30154 1-601, looked up, not shown: small tags and cut ends, Overexpressed in HEK TER cells) MAGASELGTGPGAAGGDGDDSLYPIAVLIDELRNEDVQLRLNSIKKLSTIALALGVERTRSELLPFLTDTIYDEDEVLLALAEQLGNFTGLVGGPDFAHCLLPPLENLATVEETVVRDKAVESLRQISQEHTPVALEAYFVPLVKRLASGDWFTSRTSACGLFSVCYPRASNAVKAEIRQQFRSLCSDDTPMVRRAAASKLGEFAKVLELDSVKSEIVPLFTSLASDEQDSVRLLAVEACVSIAQLLSQDDLETLVMPTLRQAAEDKSWRVRYMVADRFSELQKAMGPKITLNDLIPAFQNLLKDCEAEVRAAAAHKVKELGENLPIEDRETIIMNQILPYIKELVSDTNQHVKSALASVIMGLSTILGKENTIEHLLPLFLAQLKDECPDVRLNIISNLDCVNEVIGIRQLSQSLLPAIVELAEDAKWRVRLAIIEYMPLLAGQLGVEFFDEKLNSLCMAWLVDHVYAIREAATNNLMKLVQKFGTEWAQNTIVPKVLVMANGPNYLHRMTTLFCINALSEACGQEITTKQMLPIVLKMAGDQVANVRFNVAKSLQKIGPILDTNALQGEVKPVLQKLGQDEDMDVKYFAQEAISVLALA
no binding	50 to 90%	< 50%	50 to 90%	< 50%	cancer-derived FLAG-tagged PP2A Aβ mutant K343E (other, UniProt P30154 1-601, looked up, not shown: small tags and cut ends, Overexpressed in HEK TER cells) MAGASELGTGPGAAGGDGDDSLYPIAVLIDELRNEDVQLRLNSIKKLSTIALALGVERTRSELLPFLTDTIYDEDEVLLALAEQLGNFTGLVGGPDFAHCLLPPLENLATVEETVVRDKAVESLRQISQEHTPVALEAYFVPLVKRLASGDWFTSRTSACGLFSVCYPRASNAVKAEIRQQFRSLCSDDTPMVRRAAASKLGEFAKVLELDSVKSEIVPLFTSLASDEQDSVRLLAVEACVSIAQLLSQDDLETLVMPTLRQAAEDKSWRVRYMVADRFSELQKAMGPKITLNDLIPAFQNLLKDCEAEVRAAAAHKVKELGENLPIEDRETIIMNQILPYIEELVSDTNQHVKSALASVIMGLSTILGKENTIEHLLPLFLAQLKDECPDVRLNIISNLDCVNEVIGIRQLSQSLLPAIVELAEDAKWRVRLAIIEYMPLLAGQLGVEFFDEKLNSLCMAWLVDHVYAIREAATNNLMKLVQKFGTEWAQNTIVPKVLVMANDPNYLHRMTTLFCINALSEACGQEITTKQMLPIVLKMAGDQVANVRFNVAKSLQKIGPILDTNALQGEVKPVLQKLGQDEDMDVKYFAQEAISVLALA
no binding	< 50%	–	> 90%	–	cancer-derived FLAG-tagged PP2A Aβ mutant L101P (other, UniProt P30154 1-601, looked up, not shown: small tags and cut ends, Overexpressed in HEK TER cells) MAGASELGTGPGAAGGDGDDSLYPIAVLIDELRNEDVQLRLNSIKKLSTIALALGVERTRSELLPFLTDTIYDEDEVLLALAEQLGNFTGLVGGPDFAHCPLPPLENLATVEETVVRDKAVESLRQISQEHTPVALEAYFVPLVKRLASGDWFTSRTSACGLFSVCYPRASNAVKAEIRQQFRSLCSDDTPMVRRAAASKLGEFAKVLELDSVKSEIVPLFTSLASDEQDSVRLLAVEACVSIAQLLSQDDLETLVMPTLRQAAEDKSWRVRYMVADRFSELQKAMGPKITLNDLIPAFQNLLKDCEAEVRAAAAHKVKELGENLPIEDRETIIMNQILPYIKELVSDTNQHVKSALASVIMGLSTILGKENTIEHLLPLFLAQLKDECPDVRLNIISNLDCVNEVIGIRQLSQSLLPAIVELAEDAKWRVRLAIIEYMPLLAGQLGVEFFDEKLNSLCMAWLVDHVYAIREAATNNLMKLVQKFGTEWAQNTIVPKVLVMANDPNYLHRMTTLFCINALSEACGQEITTKQMLPIVLKMAGDQVANVRFNVAKSLQKIGPILDTNALQGEVKPVLQKLGQDEDMDVKYFAQEAISVLALA
